Reference: US20150210994A1 (CHILDREN S HOSPITAL OF PHILADELPHIA, published 2015)

How the values were obtained:
[1] = target: soluble mouse EPCR (mouse) (UniProt Q64695); assay: isothermal titration calorimetry, soluble murine EPCR
[2] = target: mouse endothelial protein C receptor (mEPCR), full-length, on CHO-K1 cells (mouse) (UniProt Q64695); assay: saturation binding on CHO-K1 cells with mEPCR, 10 to 1000 nM ligand; bound material eluted and quantified by western blot; binding to CHO-K1 cells without mEPCR subtracted; fit of bound against ligand concentration
mPC F4L = target: T1, mPC F4L (mouse, UniProt P33587 42-460); assay: HEK-293 supernatant on CHO-K1 cells with or without mEPCR, western blot
T1 construct: Tested as HEK-293 supernatant after transient expression; Position 4 is counted on the mature polypeptide; also called mouse PC Phe4 to Leu
T1 sequence (looked up): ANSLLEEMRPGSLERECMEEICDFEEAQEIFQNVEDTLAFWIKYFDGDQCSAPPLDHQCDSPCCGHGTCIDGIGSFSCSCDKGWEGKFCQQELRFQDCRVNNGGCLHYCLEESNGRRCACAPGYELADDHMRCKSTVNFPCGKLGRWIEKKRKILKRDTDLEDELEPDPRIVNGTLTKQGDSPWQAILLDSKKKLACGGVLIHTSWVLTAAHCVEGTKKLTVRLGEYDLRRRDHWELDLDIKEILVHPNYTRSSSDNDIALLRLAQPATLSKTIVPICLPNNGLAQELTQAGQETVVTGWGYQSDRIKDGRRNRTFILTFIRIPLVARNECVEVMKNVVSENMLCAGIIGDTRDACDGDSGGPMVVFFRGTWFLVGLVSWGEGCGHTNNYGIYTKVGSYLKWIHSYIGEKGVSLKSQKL
Protocol: (§1) The protein whose mEPCR binding is under investigation is added onto CHO-K1 cells expressing mEPCR (mEPCR+ve) or not (mEPCR−ve). Binding is done in the presence of physiological concentration of calcium and magnesium (1.6 mM and 0.6 mM, respectively). Following washing, the bound material is eluted with EDTA (10 mM). The bound, unbound and a portion of total loaded material are then subjected to polyacrylamide gel electrophoresis, transferred to nitrocellulose and detected by western blotting using protein-specific antibodies. FIG. 2B: Human plasma-derived protein C (hPC) or murine PC (mPC) that are known ligands for murine EPCR, were incubated with CHO-KI cells with or without murine EPCR expression. […] A variant mFVIIa bearing part of the mPC Gla domain ([1-11 mPC)-mFVIIa) restored binding of this chimeric molecule to murine EPCR.
(§2) FIG. 4A: The Gla domain of the (1-11 mPC)-mFVIIa is shown. The blue box represents the first 11 amino acids of the mouse PC (mPC) Gla domain, whereas the red box represents the portion of the Gla domain of mouse FVIIa. […] Individual mutations were performed to change one amino acid in mFVIIa with the corresponding in (1-11 mPC)-mFVIIa. Following transient expression in HEK-293 cells, supernatant with each protein was incubated with CHO-K1 cells with or without expression of the mouse EPCR receptor. […] From top to bottom, sequences are SEQ ID NOs: 1-5. […]

[3] = target: human plasma-derived protein C (hPC) (human, UniProt P04070 43-461); assay: CHO-K1 cells with or without murine EPCR, EDTA elution, western blot
Protocol: as §1, with “FIG. 2A: Scheme for determining and quantifying binding of proteins to surface exposed mouse EPCR (mEPCR). The protein” for “The protein”

murine protein C (mPC) = target: T2, murine protein C (mPC) (mouse, UniProt P33587 42-460); assay: HEK-293 supernatant on CHO-K1 cells with or without mouse EPCR, western blot of the bound fraction
T2 construct: also called mouse PC; mouse protein C
T2 sequence (looked up): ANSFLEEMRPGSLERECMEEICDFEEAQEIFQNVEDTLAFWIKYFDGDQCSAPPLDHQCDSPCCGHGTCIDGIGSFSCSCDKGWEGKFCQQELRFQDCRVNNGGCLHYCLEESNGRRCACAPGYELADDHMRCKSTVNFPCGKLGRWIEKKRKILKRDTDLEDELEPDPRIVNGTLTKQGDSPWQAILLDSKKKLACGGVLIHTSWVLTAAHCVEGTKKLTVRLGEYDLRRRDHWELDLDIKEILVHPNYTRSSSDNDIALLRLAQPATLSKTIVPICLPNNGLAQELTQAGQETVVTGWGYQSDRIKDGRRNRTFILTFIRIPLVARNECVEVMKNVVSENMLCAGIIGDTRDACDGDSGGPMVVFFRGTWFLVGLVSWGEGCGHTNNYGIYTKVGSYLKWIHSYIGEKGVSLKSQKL
Protocol: as §1, §2

mouse FVIIa (mFVIIa) = target: T3, mouse FVIIa (mFVIIa) (mouse, UniProt P70375 42-446); assay: saturation binding on CHO-K1 cells with mEPCR, 10 to 1000 nM ligand; bound material eluted and quantified by western blot; binding to CHO-K1 cells without mEPCR subtracted; fit of bound against ligand concentration
T3 construct: mature; Recombinant; Has a Gla domain; also called mF7a
T3 sequence (looked up): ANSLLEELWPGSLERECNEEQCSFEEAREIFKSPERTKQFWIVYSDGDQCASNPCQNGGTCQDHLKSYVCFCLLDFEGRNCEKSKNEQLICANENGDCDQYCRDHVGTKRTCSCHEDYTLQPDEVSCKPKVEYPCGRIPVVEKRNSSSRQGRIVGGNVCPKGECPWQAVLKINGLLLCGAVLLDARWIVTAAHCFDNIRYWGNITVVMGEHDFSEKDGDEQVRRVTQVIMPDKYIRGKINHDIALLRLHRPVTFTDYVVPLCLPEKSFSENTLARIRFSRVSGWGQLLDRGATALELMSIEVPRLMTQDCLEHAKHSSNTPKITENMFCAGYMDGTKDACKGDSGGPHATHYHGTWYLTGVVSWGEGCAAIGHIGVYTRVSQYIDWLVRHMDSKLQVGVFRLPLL
Protocol: as §1, with “FIG. 2A: Scheme for determining and quantifying binding of proteins to surface exposed mouse EPCR (mEPCR). The protein” for “The protein”
FIG. 7. Increasing concentration of ligand (mFVIIa or [1-11 mPC]-mFVIIa) was incubated with CHO-K1 cells without mEPCR (−mEPCR) or with mEPCR (+mEPCR). The experimental strategy described in Example I was followed and bound material was visualized. Following subtraction of non-specific binding (material incubated on CHO-K1[-]mEPCR cells), corrected amount of bound material (nM per 10⁶ cells) was plotted vs. concentration of ligand (nM). […]

Human FVIIa (NovoSeven) = target: T4, Human FVIIa (NovoSeven) (human, UniProt P08709 61-466); assay: CHO-K1 cells expressing human EPCR, western blot of bound fraction
T4 construct: mature
T4 sequence (looked up): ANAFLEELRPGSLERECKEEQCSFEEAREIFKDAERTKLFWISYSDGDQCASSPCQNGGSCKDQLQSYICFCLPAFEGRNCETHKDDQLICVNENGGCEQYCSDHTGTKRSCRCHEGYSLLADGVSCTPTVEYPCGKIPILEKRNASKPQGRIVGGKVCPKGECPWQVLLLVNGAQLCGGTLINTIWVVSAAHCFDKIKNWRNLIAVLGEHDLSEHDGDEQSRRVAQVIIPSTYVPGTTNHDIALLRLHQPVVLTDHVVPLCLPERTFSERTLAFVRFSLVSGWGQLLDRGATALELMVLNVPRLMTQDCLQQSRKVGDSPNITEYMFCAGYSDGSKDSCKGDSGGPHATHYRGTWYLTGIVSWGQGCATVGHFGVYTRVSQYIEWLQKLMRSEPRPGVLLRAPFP
Protocol: as §1, with “FIG. 2A: Scheme for determining and quantifying binding of proteins to surface exposed mouse EPCR (mEPCR). The protein” for “The protein”
(§3) FIG. 12. Binding of variants of human activated FVII with amino acid changes at position 8 (normally a Leucine). Conditioned medium from transient transfection was added on CHO-K1 cells expressing human EPCR, as described in FIG. 2. […] Following the wash of unbound material, the bound fraction was visualized by western blotting (shown in the bottom image). […] Human FVIIa (NovoSeven) is shown as a control for positive binding. […]

[4] = target: T5, wildtype human FVIIa (Leu at position 8), PACE/furin construct (human, UniProt P08709 61-466); assay: conditioned medium on CHO-K1 cells expressing human EPCR, western blot of bound fraction
T5 construct: mature; Tested as conditioned medium from transiently transfected HEK-293 cells
T5 sequence (looked up): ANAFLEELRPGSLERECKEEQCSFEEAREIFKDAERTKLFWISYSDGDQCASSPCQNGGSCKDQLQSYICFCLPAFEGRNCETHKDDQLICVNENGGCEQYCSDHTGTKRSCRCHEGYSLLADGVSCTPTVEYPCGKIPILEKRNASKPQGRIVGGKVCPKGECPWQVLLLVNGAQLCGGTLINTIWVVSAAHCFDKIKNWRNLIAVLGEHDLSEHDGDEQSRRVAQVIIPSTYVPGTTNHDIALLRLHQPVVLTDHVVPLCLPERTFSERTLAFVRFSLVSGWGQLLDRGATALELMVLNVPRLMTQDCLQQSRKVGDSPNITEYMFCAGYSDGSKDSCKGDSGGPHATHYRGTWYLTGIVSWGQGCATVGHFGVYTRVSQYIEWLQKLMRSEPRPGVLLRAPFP
Protocol: as §1, with “FIG. 2A: Scheme for determining and quantifying binding of proteins to surface exposed mouse EPCR (mEPCR). The protein” for “The protein”
as §3

Chain of human plasma-derived protein C (hPC) (P04070 43-461): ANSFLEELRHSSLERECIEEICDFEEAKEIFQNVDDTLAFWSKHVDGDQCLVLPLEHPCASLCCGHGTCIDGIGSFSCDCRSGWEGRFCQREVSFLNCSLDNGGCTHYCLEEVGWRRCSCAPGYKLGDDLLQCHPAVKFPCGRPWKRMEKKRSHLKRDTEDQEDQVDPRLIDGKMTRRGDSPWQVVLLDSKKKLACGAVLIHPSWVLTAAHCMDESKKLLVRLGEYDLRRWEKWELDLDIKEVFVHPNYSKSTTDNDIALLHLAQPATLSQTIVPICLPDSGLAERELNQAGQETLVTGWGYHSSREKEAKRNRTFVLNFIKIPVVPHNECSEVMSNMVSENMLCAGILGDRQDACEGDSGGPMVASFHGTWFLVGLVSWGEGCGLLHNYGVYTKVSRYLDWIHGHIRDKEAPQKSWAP

**Q.** What does the source list for “(1-11 mPC)-mFVIIa (from UniProt P70375 42-446) (enzyme)”?
**A.** Kd [1]: 480 nM; Kd [2]: 340 nM

B1: mouse endothelial protein C receptor (mEPCR), full-length, on CHO-K1 cells (receptor, UniProt Q64695 18-242, looked up)
chain: LCNSDGSQSLHMLQISYFQDNHHVRHQGNASLGKLLTHTLEGPSQNVTILQLQPWQDPESWERTESGLQIYLTQFESLVKLVYRERKENVFFPLTVSCSLGCELPEEEEEGSEPHVFFDVAVNGSAFVSFRPKTAVWVSGSQEPSKAANFTLKQLNAYNRTRYELQEFLQDTCVEFLENHITTQNMKGSQTGRSYTSLVLGILMGCFIIAGVAVGIFMCTSGRRC
notes: whole, on cells; also called murine EPCR; mouse EPCR
**Q.** Does B1 bind (mPC F4L)?
**A.** no binding

**Q.** Does B1 bind [3]?
**A.** binds

**Q.** Does B1 bind (murine protein C (mPC))?
**A.** binds

**Q.** What about the Kd (mouse FVIIa (mFVIIa)) of the same molecule?
**A.** 10600 nM

B2: human EPCR on CHO-K1 cells (receptor, UniProt Q9UNN8 18-238, looked up)
chain: SQDASDGLQRLHMLQISYFRDPYHVWYQGNASLGGHLTHVLEGPDTNTTIIQLQPLQEPESWARTQSGLQSYLLQFHGLVRLVHQERTLAFPLTIRCFLGCELPPEGSRAHVFFEVAVNGSSFVSFRPERALWQADTQVTSGVVTFTLQQLNAYNRTRYELREFLEDTCVQYVQKHISAENTKGSQTSRSYTSLVLGVLVGSFIIAGVAVGIFLCTGGRRC
notes: whole, on cells; also called hEPCR
**Q.** Which results are given for B2?
**A.** binding result (Human FVIIa (NovoSeven)): binds; binding result [4]: binds
